Laboratory results published in article PMC6503385, “Functional characterization of BmOVOs in silkworm, Bombyx mori”.

Target: BmOVO zinc-finger domain (BmOVO-2 C-terminal) (Bombyx mori, UniProt D3YIG7 629-806)
Test: EMSA; 0.02 mg/ml protein, poly dI.dC; LightShift EMSA kit, 20 ul: 1x binding buffer, 1 ul each poly dI.dC, NP-40, KCl, glycerol; 0.75 pM probe; 20 min at room temperature; 6% polyacrylamide gel; pH
Conditions: protein: recombinant; tags: 6xHis (pET28a); label: biotin (5' on both strands as printed); blunt

Chain of BmOVO zinc-finger domain (BmOVO-2 C-terminal) (D3YIG7 entry or part of it): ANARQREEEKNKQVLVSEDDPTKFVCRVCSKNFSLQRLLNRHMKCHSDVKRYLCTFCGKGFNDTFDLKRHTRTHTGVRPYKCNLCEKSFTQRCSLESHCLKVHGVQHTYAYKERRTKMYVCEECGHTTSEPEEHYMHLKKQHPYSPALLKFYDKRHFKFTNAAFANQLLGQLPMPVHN

B1: otu-A (CE1) (dsDNA)
DNA 1: GCCCCTAAAATGTACCGTTGTAACTTCTGT
DNA 2: ACAGAAGTTACAACGGTACATTTTAGGGGC
binding result: binds
